For 2 substances, reduction of the thermal aggregation of citrate synthase (0.8 µM, 44°C, absorbance/light scattering results are on record in PMC4502909.

The target of the test is Pig heart citrate synthase (pig) (UniProt P00889).
UniProt P00889, sequence (P00889 28-464): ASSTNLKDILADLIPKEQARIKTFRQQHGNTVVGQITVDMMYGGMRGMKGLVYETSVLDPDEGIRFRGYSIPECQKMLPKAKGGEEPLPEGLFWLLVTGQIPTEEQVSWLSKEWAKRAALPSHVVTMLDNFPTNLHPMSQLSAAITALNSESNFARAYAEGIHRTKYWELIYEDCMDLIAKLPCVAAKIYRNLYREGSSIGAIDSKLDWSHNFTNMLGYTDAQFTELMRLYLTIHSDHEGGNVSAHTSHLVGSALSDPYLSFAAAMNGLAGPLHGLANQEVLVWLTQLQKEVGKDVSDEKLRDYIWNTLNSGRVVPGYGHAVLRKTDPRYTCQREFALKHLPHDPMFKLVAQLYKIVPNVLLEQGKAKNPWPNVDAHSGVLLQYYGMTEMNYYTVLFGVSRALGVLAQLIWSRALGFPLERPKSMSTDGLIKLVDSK

The substance “rHtrA1 (HtrA1-ΔTM-Ser255Ala-His6), secreted soluble C-terminal region of Staphylococcus aureus strain COL HtrA1 (domain or fragment)” gave a reduction of the thermal aggregation of citrate synthase (0.8 µM, 44°C, absorbance/light scattering at 650 nm) by 5 µM rHtrA1 of 30%. Take “rHtrA2 (HtrA2-ΔTM-Ser619Ala-His6), secreted soluble C-terminal region of Staphylococcus aureus strain COL HtrA2 (domain or fragment)”: the reduction of the thermal aggregation of citrate synthase (0.8 µM, 44°C, absorbance/light scattering at 650 nm) by 5 µM rHtrA2 was found to be 30%.
